Blank lines part the entries; values can stand above or below the molecule they belong to. Primed or numbered codes have the meaning given here. Ends that are not written are not given here. DBCO′ = not defined here
Experiments:
Factor XIIIa [1] = target: T1, Factor XIIIa (Homo sapiens, UniProt P00488); assay: Crosslinking of D domain peptides to a glutamine substrate derived from α-2 plasmin inhibitor, catalyzed by FXIIIa, RP-HPLC; assay type: biochemical
T1 construct: purchased Fibrogammin®
T1 sequence (P00488 39-732 limits assumed): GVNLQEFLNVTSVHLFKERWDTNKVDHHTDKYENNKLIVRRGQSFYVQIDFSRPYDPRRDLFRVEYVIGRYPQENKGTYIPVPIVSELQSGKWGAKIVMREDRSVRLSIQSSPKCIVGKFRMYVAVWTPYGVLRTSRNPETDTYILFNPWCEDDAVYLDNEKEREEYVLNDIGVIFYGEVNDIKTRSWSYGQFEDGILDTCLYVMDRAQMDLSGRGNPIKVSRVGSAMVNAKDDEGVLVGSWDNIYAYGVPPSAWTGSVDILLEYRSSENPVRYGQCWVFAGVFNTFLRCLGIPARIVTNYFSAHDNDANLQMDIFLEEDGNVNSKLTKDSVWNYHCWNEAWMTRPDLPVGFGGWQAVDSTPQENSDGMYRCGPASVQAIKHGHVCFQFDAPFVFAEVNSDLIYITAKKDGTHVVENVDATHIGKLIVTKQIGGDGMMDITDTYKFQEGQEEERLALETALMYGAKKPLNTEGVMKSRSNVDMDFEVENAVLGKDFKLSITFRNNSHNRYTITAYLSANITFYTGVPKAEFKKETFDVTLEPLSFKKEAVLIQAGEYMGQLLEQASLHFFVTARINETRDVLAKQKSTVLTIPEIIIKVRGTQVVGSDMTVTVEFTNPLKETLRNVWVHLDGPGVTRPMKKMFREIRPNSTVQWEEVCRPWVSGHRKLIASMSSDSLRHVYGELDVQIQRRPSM
From the text: Using solid phase peptide synthesis, the isolated peptide sequence of the D domain of human IGF-I (SEQ ID NO: 1) and mouse IGF-I (SEQ ID NO: 6) were synthesized and purified using preparative HPLC to achieve >95% purity. Additionally, a collection of N-terminally truncated versions of both sequences were created, in order to test if 7 or less amino acids are sufficient to be recognized by Factor XIIIa. According to a trypsin digest of coupled IGF-I, only K68 is modified and therefore, a reduction of the sequence to the last 3 amino acids could be possible. The truncated versions were manufactured and purified accordingly. Lyophilized peptides were dissolved in Tris buffer (20 mM Tris-HCl, 150 mM NaCl, pH 7.6) and reacted with a glutamine substrate (SEQ ID NO: 13, derived from α-2 plasmin inhibitor) in presence of 0.1 M calcium chloride and 10 U/ml Factor XIIIa (Fibrogammin®, activated with 0.02 U/ml thrombin). Following 30 minutes incubation at 37° C., the coupling reaction was stopped and the amount of crosslinked peptide analyzed using analytical RP-HPLC. The crosslinking ratios using equimolar amounts of both peptides (D domain and glutamine acceptor) are depicted in Table 1.

Factor XIIIa [2] = target: T1, Factor XIIIa; assay: as above; assay type: biochemical; remark: listed apart in the source
fibronectin [3] = assay: Immobilization of dye-D domain conjugate on cell derived, isolated ECM / fibronectin using FXIIIa; assay type: biochemical; settings: ECM from NIH3T3 fibroblasts (FIG. 2)
From the text: As proof of concept (for covalent attachment of a bioactive factor to extracellular matrix (ECM), we modified the D domain of IGF-I (SEQ ID NO: 1) with an dibenzocyclooctyne group (DBCO) at the N-terminus (SEQ: DBCO-PLKPAKSA), followed by coupling of a small molecule (fluorescent dye Azide Fluor 488) onto cell derived, isolated ECM. The ECM was produced by NIH3T3 fibroblasts and on day 6 decellularized and washed to remove cell debris and adsorbed proteins. Taking advantage of the intrinsic property of fibronectin, representing a glutamine donor for Factor XIII, we immobilized the fluorescent dye-D domain conjugate on the N-terminus of fibronectin without impairment of ECM structure and integrity.
FIG. 2: Immobilization of the covalent conjugate of the D domain (SEQ ID NO: 1) and the small molecule Azide Fluor 488 on fibronectin (isolated from human plasma) catalyzed by transglutaminase. The conjugates coupled to fibronectin in absence (lane #1) and presence (lane #2) of Factor XIIIa were transferred to a 5% SDS-PAGE gel and analyzed for fluorescence.
FIG. 3: Confocal laser scanning microscopy images of the Azide Fluor 488-D domain conjugate immobilized on isolated ECM in presence (panel 1) or absence (panel 2) of factor XIIIa. The green fluorescence of the immobilized dye-peptide conjugate co-localized with fibronectin (red fluorescence).

fibronectin [4] = assay: Immobilization of eGFP modified with the D domain on plasma fibronectin and ECM using factor XIIIa; assay type: biochemical
Description: The same coupling reaction as described for IGF-I (Example 3) was also performed with enhanced green fluorescent protein (eGFP), previously modified with the D domain of human IGF-I (SEQ ID NO: 1), and immobilized using factor XIIIa (FIGS. 8A-8B). […] FIGS. 8A-8B: (8A) Western Blot of enhanced green fluorescent protein modified with the D domain (SEQ ID NO: 1) (eGFP-D domain, lane #1) after incubation with fibronectin in absence (lane #2) and presence (lane #3) of Factor XIIIa. (8B) Confocal laser scanning microscopy images of eGFP modified with the D domain (SEQ ID NO: 1) and immobilized on isolated ECM in presence (panel 1) or absence (panel 2) of factor XIIIa. The immobilized eGFP was visualized with a monoclonal eGFP antibody (green) und co-localized with fibronectin (red).

[5] = target: T2, D domain of human IGF-I (SEQ ID NO: 1)
T2 chain: PLKPAKSA

[6] = target: T3, D domain of mouse IGF-I (SEQ ID NO: 6)
T3 chain: PLKPTKAA

[7] = target: T4, N-terminally truncated D domain of human IGF-I, SEQ ID NO: 2
T4 chain: LKPAKSA

[8] = target: T5, N-terminally truncated D domain of human IGF-I, SEQ ID NO: 3
T5 chain: KPAKSA

[9] = target: T6, N-terminally truncated D domain of human IGF-I, SEQ ID NO: 4
T6 chain: PAKSA

[10] = target: T7, N-terminally truncated D domain of human IGF-I, SEQ ID NO: 5
T7 chain: AKSA

[11] = target: T8, N-terminally truncated D domain of mouse IGF-I, SEQ ID NO: 10
T8 chain: TKAA

[12] = target: T9, N-terminally truncated D domain of mouse IGF-I, SEQ ID NO: 7
T9 chain: LKPTKAA

[13] = target: T10, N-terminally truncated D domain of mouse IGF-I, SEQ ID NO: 8
T10 chain: KPTKAA

[14] = target: T11, N-terminally truncated D domain of mouse IGF-I, SEQ ID NO: 9
T11 chain: PTKAA

SEQ ID NO: 10 (-AS 67) = target: T12, SEQ ID NO: 10 (-AS 67)
T12 chain: KAA

SEQ ID NO: 5 (-AS 67) = target: T13, SEQ ID NO: 5 (-AS 67)
T13 chain: KSA

[15] = equimolar peptide and glutamine substrate, incubation for 30 minutes with 10 U/ml FXIIIa, 37° C.

- Crosslinking Efficacy (1:1 molar ratio)* (Factor XIIIa [1]; [15]): 82.94 ± 0.79
- Crosslinking Efficacy (1:1 molar ratio)* (Factor XIIIa [1]; molar excess of the glutamine sequence 1): 81.06 ± 5.13
- Crosslinking Efficacy (1:1 molar ratio)* (Factor XIIIa [2]; molar excess of the glutamine sequence 0.5): 44.48 ± 2.45
- Crosslinking Efficacy (1:1 molar ratio)* (Factor XIIIa [2]; molar excess of the glutamine sequence 2.5): 84.67 ± 2.02
- Crosslinking Efficacy (1:1 molar ratio)* (Factor XIIIa [2]; molar excess of the glutamine sequence 3.75): 87.53 ± 5.33
- Crosslinking Efficacy (1:1 molar ratio)* (Factor XIIIa [2]; molar excess of the glutamine sequence 5): 84.91 ± 6.23
- Crosslinking Efficacy (1:1 molar ratio)* (Factor XIIIa [2]; molar excess of the glutamine sequence 10): 88.67 ± 6.52
- conversion, time course of the coupling reaction with the Q peptide (Factor XIIIa [2]; within 10 minutes (FIG. 1)): about 80%
Molecule: PLKPAKSA (listed as Homo sapiens) [SEQ ID NO: 1, isolated D domain of human IGF-I]

Molecule: Alexa488-D domain: DBCO-PLKPAKSA coupled with fluorescent dye Azide Fluor 488 ({Azide Fluor 488-DBCO′}-PLKPAKSA)
- immobilization on ECM (fibronectin [3]): high efficacy

- Crosslinking Efficacy (1:1 molar ratio)* (Factor XIIIa [1]; [15]): 39.26 ± 4.07
Molecule: TKAA (listed as Mus musculus) [SEQ ID NO: 10, N-terminally truncated mouse D domain]

- Crosslinking Efficacy (1:1 molar ratio)* (Factor XIIIa [1]; [15]): 55.68 ± 3.25
Molecule: KPTKAA (listed as Mus musculus) [SEQ ID NO: 8, N-terminally truncated mouse D domain]

- Crosslinking Efficacy (1:1 molar ratio)* (Factor XIIIa [1]; [15]): 58.37 ± 2.10
Molecule: KPAKSA (listed as Homo sapiens) [SEQ ID NO: 3, N-terminally truncated human D domain]

- Crosslinking Efficacy (1:1 molar ratio)* (Factor XIIIa [1]; [15]): 44.18 ± 3.23
Molecule: PAKSA (listed as Homo sapiens) [SEQ ID NO: 4, N-terminally truncated human D domain]

- Crosslinking Efficacy (1:1 molar ratio)* (Factor XIIIa [1]; [15]): 84.16 ± 7.76
Molecule: PLKPTKAA (listed as Mus musculus) [SEQ ID NO: 6, isolated D domain of mouse IGF-I]

- Crosslinking Efficacy (1:1 molar ratio)* (Factor XIIIa [1]; [15]): 24.68 ± 3.42
Molecule: KAA (listed as Mus musculus) [SEQ ID NO: 10 (−AS 67)]

Molecule: eGFP-D domain conjugate: enhanced green fluorescent protein modified with the D domain of human IGF-I (SEQ ID NO: 1) (PLKPAKSA; also: conjugated to eGFP)
- conjugation to plasma fibronectin (western blot) (fibronectin [4]; factor XIIIa (FIG. 8A)): effective conjugation
- immobilization of the modified protein on ECM (fibronectin [4]; factor XIIIa (FIG. 8B)): confirmed

- Crosslinking Efficacy (1:1 molar ratio)* (Factor XIIIa [1]; [15]): 49.52 ± 1.29
Molecule: AKSA (listed as Homo sapiens) [SEQ ID NO: 5, N-terminally truncated human D domain]

- Crosslinking Efficacy (1:1 molar ratio)* (Factor XIIIa [1]; [15]): 21.40 ± 1.96
Molecule: KSA (listed as Homo sapiens) [SEQ ID NO: 5 (−AS 67)]

- Crosslinking Efficacy (1:1 molar ratio)* (Factor XIIIa [1]; [15]): 69.42 ± 8.62
Molecule: LKPTKAA (listed as Mus musculus) [SEQ ID NO: 7, N-terminally truncated mouse D domain]

Molecule: LKPAKSA (listed as Homo sapiens) [SEQ ID NO: 2, N-terminally truncated human D domain]
- Crosslinking Efficacy (1:1 molar ratio)* (Factor XIIIa [1]; [15]): 72.45 ± 1.57

- Crosslinking Efficacy (1:1 molar ratio)* (Factor XIIIa [1]; [15]): 33.69 ± 1.41
Molecule: PTKAA (listed as Mus musculus) [SEQ ID NO: 9, N-terminally truncated mouse D domain]

B1: human Factor XIIIa (Fibrogammin, activated with 0.02 U/ml thrombin) (protein)
chain: GVNLQEFLNVTSVHLFKERWDTNKVDHHTDKYENNKLIVRRGQSFYVQIDFSRPYDPRRDLFRVEYVIGRYPQENKGTYIPVPIVSELQSGKWGAKIVMREDRSVRLSIQSSPKCIVGKFRMYVAVWTPYGVLRTSRNPETDTYILFNPWCEDDAVYLDNEKEREEYVLNDIGVIFYGEVNDIKTRSWSYGQFEDGILDTCLYVMDRAQMDLSGRGNPIKVSRVGSAMVNAKDDEGVLVGSWDNIYAYGVPPSAWTGSVDILLEYRSSENPVRYGQCWVFAGVFNTFLRCLGIPARIVTNYFSAHDNDANLQMDIFLEEDGNVNSKLTKDSVWNYHCWNEAWMTRPDLPVGFGGWQAVDSTPQENSDGMYRCGPASVQAIKHGHVCFQFDAPFVFAEVNSDLIYITAKKDGTHVVENVDATHIGKLIVTKQIGGDGMMDITDTYKFQEGQEEERLALETALMYGAKKPLNTEGVMKSRSNVDMDFEVENAVLGKDFKLSITFRNNSHNRYTITAYLSANITFYTGVPKAEFKKETFDVTLEPLSFKKEAVLIQAGEYMGQLLEQASLHFFVTARINETRDVLAKQKSTVLTIPEIIIKVRGTQVVGSDMTVTVEFTNPLKETLRNVWVHLDGPGVTRPMKKMFREIRPNSTVQWEEVCRPWVSGHRKLIASMSSDSLRHVYGELDVQIQRRPSM
- Crosslinking Efficacy (1:1 molar ratio) to the glutamine substrate derived from α2PI, 30 min, 10 U/ml FXIIIa, RP-HPLC [5]: 82.9%
- conversion in the time course of the coupling reaction between the Q peptide and the D domain [5]: achieving about 80% conversion within 10 minutes
- Crosslinking Efficacy (1:1 molar ratio) to the glutamine substrate derived from α2PI, 30 min, 10 U/ml FXIIIa, RP-HPLC [6]: 84.2%
- Crosslinking Efficacy (1:1 molar ratio) to the glutamine substrate derived from α2PI, 30 min, 10 U/ml FXIIIa, RP-HPLC [7]: 72.5%
- Crosslinking Efficacy (1:1 molar ratio) to the glutamine substrate derived from α2PI, 30 min, 10 U/ml FXIIIa, RP-HPLC [8]: 58.4%
- Crosslinking Efficacy (1:1 molar ratio) to the glutamine substrate derived from α2PI, 30 min, 10 U/ml FXIIIa, RP-HPLC [9]: 44.2%
- Crosslinking Efficacy (1:1 molar ratio) to the glutamine substrate derived from α2PI, 30 min, 10 U/ml FXIIIa, RP-HPLC [10]: 49.5%
- Crosslinking Efficacy (1:1 molar ratio) to the glutamine substrate derived from α2PI, 30 min, 10 U/ml FXIIIa, RP-HPLC [11]: 39.3%
- Crosslinking Efficacy (1:1 molar ratio) to the glutamine substrate derived from α2PI, 30 min, 10 U/ml FXIIIa, RP-HPLC [12]: 69.4%
- Crosslinking Efficacy (1:1 molar ratio) to the glutamine substrate derived from α2PI, 30 min, 10 U/ml FXIIIa, RP-HPLC [13]: 55.7%
- Crosslinking Efficacy (1:1 molar ratio) to the glutamine substrate derived from α2PI, 30 min, 10 U/ml FXIIIa, RP-HPLC [14]: 33.7%
- Crosslinking Efficacy (1:1 molar ratio) to the glutamine substrate derived from α2PI, 30 min, 10 U/ml FXIIIa, RP-HPLC (SEQ ID NO: 10 (-AS 67)): 24.7%
- Crosslinking Efficacy (1:1 molar ratio) to the glutamine substrate derived from α2PI, 30 min, 10 U/ml FXIIIa, RP-HPLC (SEQ ID NO: 5 (-AS 67)): 21.4%

Reference: patent US20250115655A1, “PHARMACEUTICALS AND DEVICES FOR THE COVALENT IMMOBILIZATION TO THE EXTRACELLULAR MATRIX BY TRANSGLUTAMINASE” (JULIUS-MAXIMILIANS-UNIVERSITÄT WÜRZBURG, priority 2017, published 2025)
